In article PMC12291119, “In Vitro Selection of Cyclized, Glycosylated Peptide Antigens That Tightly Bind HIV High Mannose Patch Antibodies” (ACS Central Science, 2025):

Columns and labels:
Experiment in all cases: BLI; glycopeptides immobilized via biotin on a streptavidin biosensor; series of 2-fold dilutions of antibody
[1] = target: acyclic H1 variant (peptide 7)
[2] = target: H1 glycopeptide (peptide 1)
[3] = target: H22 glycopeptide (peptide 2)
[4] = target: H1 mutant with IGDIR changed to IAAIA (peptide 5)
[5] = target: random scrambled version of the H1 sequence containing three glycans and cyclization (peptide 6)
[6] = target: H1 mutant without the glycan at the first of the three glycosylation sites (peptide 3)
[7] = target: H1 mutant without the glycans at the second and third glycosylation sites (peptide 4)
[8] = target: L1 glycopeptide (peptide 8)

B1: PGT128 (antibody, V domains shown)
VH: QPQLQESGPTLVEASETLSLTCAVSGDSTAACNSFWGWVRQPPGKGLEWVGSLSHCASYWNRGWTYHNPSLKSRLTLALDTPKNLVFLKLNSVTAADTATYYCARFGGEVLRYTDWPKPAWVDLWGRGTLVTVSS
VL: QSALTQPPSASGSPGQSITISCTGTSNNFVSWYQQHAGKAPKLVIYDVNKRPSGVPDRFSGSKSGNTASLTVSGLQTDDEAVYYCGSLVGNWDVIFGGGTKLTVL
Kd [1]: 90 nM
Kd [2]: 0.52 nM
Kd [3]: 16.9 nM
fold decrease in binding against H1 (peptide 1) [4]: 26 fold
Kd [5]: 251 nM
fold loss of recognition against H1 (peptide 1) [6]: 2 fold
fold decrease in binding against H1 (peptide 1) [7]: 40 fold
Kd [8]: 2.37 nM
